The supplement of paper PMC10567573

B1: UBE2R2 (parent)
chain: DPQSGELPSERWNPTQNVRTILLS
B2: SPOPL (parent)
chain: YTGRAPNLDKMADNLLAAADKYAL

Variants of: B1
Experiment: protein stability index of a GFP-peptide fusion (GPS, HEK-293T) (PSI 1-6); higher = more stable
Conditions: c terminus: a fixed tail appended
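Also: lentivirally expressed fusions sorted by FACS into six bins by GFP to DsRed ratio, PSI derived from sequencing read proportions per bin multiplied by bin number.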

Variant | protein stability index
DPQMGELPSERWNPTQNVRTILLS [S4M] | 2.95
DPQRGELPSERWNPTQNVRTILLS [S4R] | 3.87
DPQFGELPSERWNPTQNVRTILLS [S4F] | 3.49
DPQDGELPSERWNPTQNVRTILLS [S4D] | 3.79
DPQPGELPSERWNPTQNVRTILLS [S4P] | 3.02
DPQTGELPSERWNPTQNVRTILLS [S4T] | 3.16
DPQYGELPSERWNPTQNVRTILLS [S4Y] | 2.39
DPQCGELPSERWNPTQNVRTILLS [S4C] | 3.61
DPQKGELPSERWNPTQNVRTILLS [S4K] | 3.75
DPQIGELPSERWNPTQNVRTILLS [S4I] | 3.4
DPQVGELPSERWNPTQNVRTILLS [S4V] | 3.41
DPQHGELPSERWNPTQNVRTILLS [S4H] | 3.45
DPQLGELPSERWNPTQNVRTILLS [S4L] | 3.6
DPQNGELPSERWNPTQNVRTILLS [S4N] | 2.99
DPQAGELPSERWNPTQNVRTILLS [S4A] | 3.15
DPQQGELPSERWNPTQNVRTILLS [S4Q] | 3.68
RPQSGELPSERWNPTQNVRTILLS [D1R] | 3.17
EPQSGELPSERWNPTQNVRTILLS [D1E] | 3.31
HPQSGELPSERWNPTQNVRTILLS [D1H] | 3.34
QPQSGELPSERWNPTQNVRTILLS [D1Q] | 3.88
TPQSGELPSERWNPTQNVRTILLS [D1T] | 2.63

Variant | protein stability index
IPQSGELPSERWNPTQNVRTILLS [D1I] | 2.67
CPQSGELPSERWNPTQNVRTILLS [D1C] | 3.93
FPQSGELPSERWNPTQNVRTILLS [D1F] | 2.58
NPQSGELPSERWNPTQNVRTILLS [D1N] | 3.09
SPQSGELPSERWNPTQNVRTILLS [D1S] | 2.25
LPQSGELPSERWNPTQNVRTILLS [D1L] | 3.58
APQSGELPSERWNPTQNVRTILLS [D1A] | 2.69
GPQSGELPSERWNPTQNVRTILLS [D1G] | 3.26
VPQSGELPSERWNPTQNVRTILLS [D1V] | 2.35
KPQSGELPSERWNPTQNVRTILLS [D1K] | 3.7
DPCSGELPSERWNPTQNVRTILLS [Q3C] | 3.81
DPASGELPSERWNPTQNVRTILLS [Q3A] | 3.67
DPYSGELPSERWNPTQNVRTILLS [Q3Y] | 2.42
DPHSGELPSERWNPTQNVRTILLS [Q3H] | 3.22
DPRSGELPSERWNPTQNVRTILLS [Q3R] | 3.4
DPGSGELPSERWNPTQNVRTILLS [Q3G] | 3.79
DPMSGELPSERWNPTQNVRTILLS [Q3M] | 3.53
DPNSGELPSERWNPTQNVRTILLS [Q3N] | 3.45
DPTSGELPSERWNPTQNVRTILLS [Q3T] | 4.11
DPLSGELPSERWNPTQNVRTILLS [Q3L] | 3.65
DPESGELPSERWNPTQNVRTILLS [Q3E] | 3.82

Variant | protein stability index
DPDSGELPSERWNPTQNVRTILLS [Q3D] | 3.9
DPSSGELPSERWNPTQNVRTILLS [Q3S] | 3.41
DPISGELPSERWNPTQNVRTILLS [Q3I] | 3.24
DPKSGELPSERWNPTQNVRTILLS [Q3K] | 3.06
DPFSGELPSERWNPTQNVRTILLS [Q3F] | 4.05
DPPSGELPSERWNPTQNVRTILLS [Q3P] | 3.01
DTQSGELPSERWNPTQNVRTILLS [P2T] | 3.52
DQQSGELPSERWNPTQNVRTILLS [P2Q] | 3.22
DGQSGELPSERWNPTQNVRTILLS [P2G] | 3.06
DVQSGELPSERWNPTQNVRTILLS [P2V] | 3.61
DIQSGELPSERWNPTQNVRTILLS [P2I] | 2.5
DKQSGELPSERWNPTQNVRTILLS [P2K] | 3.95
DEQSGELPSERWNPTQNVRTILLS [P2E] | 3.59
DFQSGELPSERWNPTQNVRTILLS [P2F] | 2.81
DNQSGELPSERWNPTQNVRTILLS [P2N] | 3.35
DRQSGELPSERWNPTQNVRTILLS [P2R] | 3.09
DWQSGELPSERWNPTQNVRTILLS [P2W] | 2.34
DHQSGELPSERWNPTQNVRTILLS [P2H] | 2.88
DAQSGELPSERWNPTQNVRTILLS [P2A] | 3.66
DLQSGELPSERWNPTQNVRTILLS [P2L] | 2.99
DMQSGELPSERWNPTQNVRTILLS [P2M] | 3.16

Variants of: B2
Experiment: as above
Conditions: c terminus: a fixed tail appended

Variant | protein stability index
YTGRAPNLDKMADNLLAAADKYDL [A23D] | 2.45
YTGRAPNLDKMADNLLAAADKYIL [A23I] | 1.65
YTGRAPNLDKMADNLLAAADKYWL [A23W] | 1.22
YTGRAPNLDKMADNLLAAADKYEL [A23E] | 2.77
YTGRAPNLDKMADNLLAAADKYML [A23M] | 2.18
YTGRAPNLDKMADNLLAAADKYRL [A23R] | 1.91
YTGRAPNLDKMADNLLAAADKYTL [A23T] | 2.71
YTHRAPNLDKMADNLLAAADKYAL [G3H] | 2.5
YTWRAPNLDKMADNLLAAADKYAL [G3W] | 2.88
YTCRAPNLDKMADNLLAAADKYAL [G3C] | 1.64
YTRRAPNLDKMADNLLAAADKYAL [G3R] | 2.29
YTQRAPNLDKMADNLLAAADKYAL [G3Q] | 2.7
YTERAPNLDKMADNLLAAADKYAL [G3E] | 2.94
YTGRAPNLDKMADNLLAAADKYAD [L24D] | 3.62
YTGRAPNLDKMADNLLAAADKYAM [L24M] | 2.33
YTGRAPNLDKMADNLLAAADKYAF [L24F] | 2.01

Variant | protein stability index
YTGRAPNLDKMADNLLAAADKYAV [L24V] | 2
YTGRAPNLDKMADNLLAAADKYAH [L24H] | 2.49
YTGRAPNLDKMADNLLAAADKYAS [L24S] | 2.73
YTGRAPNLDKMADNFLAAADKYAL [L15F] | 2.23
YTGRAPNLDKMADNVLAAADKYAL [L15V] | 2.14
YTGRAPNLDKMADNELAAADKYAL [L15E] | 2.92
YTGRAPNLDKMADNWLAAADKYAL [L15W] | 1.93
YTGRAPNLDKMADNQLAAADKYAL [L15Q] | 2.96
YTGRAPNLDKMADNPLAAADKYAL [L15P] | 2.43
YTGRAPNLDKMWDNLLAAADKYAL [A12W] | 1.32
YTGRAPNLDKMRDNLLAAADKYAL [A12R] | 1.56
YTGRAPNLDKMNDNLLAAADKYAL [A12N] | 2.88
YTGRAPNLDKMEDNLLAAADKYAL [A12E] | 2.05
YTGRAPNLWKMADNLLAAADKYAL [D9W] | 2.67
YTGRAPNLVKMADNLLAAADKYAL [D9V] | 3.1
